Consider one substance from patent US5834273A, “Heat-stable and water soluble modified enzymes” (Wako Pure Chemical Industries, Ltd., priority 1991, dated 1998).

The data set concerns the target T1, XOD (Bos taurus, UniProt P80457).
T1 construct: purchased Boehringer Mannheim GmbH
In words: Thermal stability of XOD. The note with it: 75 min, pH 7.0, 0.2 U/ml. The format is physicochemical, cow. On the procedure: Measuring Method of XOD Activity
The method described in Method of Enzymatic Analysis, vol. 3, pages 212, 1983.
To 2 ml of aqueous solution containing 5 mg of pyromellitic acid-modified dextran obtained in Example 1(1), 65 mg of WSC was added. To the resulting solution maintained at pH 6.0 using a pH-stat, 0.5 ml of 10 mM phosphate buffer solution (pH 7.0) containing 10 mg of XOD (mfd. by Boehringer Mannheim GmbH., derived from cow milk) was added and reacted at 50° C. for 24 hours.
The thus obtained modified XOD and the intact XOD were dissolved in 20 mM phosphate buffer solution (pH 7.0) in an amount of 0.2 U/ml, respectively,and stored at a predetermined temperature for 75 min. to measure the change of residual activity.

T1 sequence (P80457 whole entry): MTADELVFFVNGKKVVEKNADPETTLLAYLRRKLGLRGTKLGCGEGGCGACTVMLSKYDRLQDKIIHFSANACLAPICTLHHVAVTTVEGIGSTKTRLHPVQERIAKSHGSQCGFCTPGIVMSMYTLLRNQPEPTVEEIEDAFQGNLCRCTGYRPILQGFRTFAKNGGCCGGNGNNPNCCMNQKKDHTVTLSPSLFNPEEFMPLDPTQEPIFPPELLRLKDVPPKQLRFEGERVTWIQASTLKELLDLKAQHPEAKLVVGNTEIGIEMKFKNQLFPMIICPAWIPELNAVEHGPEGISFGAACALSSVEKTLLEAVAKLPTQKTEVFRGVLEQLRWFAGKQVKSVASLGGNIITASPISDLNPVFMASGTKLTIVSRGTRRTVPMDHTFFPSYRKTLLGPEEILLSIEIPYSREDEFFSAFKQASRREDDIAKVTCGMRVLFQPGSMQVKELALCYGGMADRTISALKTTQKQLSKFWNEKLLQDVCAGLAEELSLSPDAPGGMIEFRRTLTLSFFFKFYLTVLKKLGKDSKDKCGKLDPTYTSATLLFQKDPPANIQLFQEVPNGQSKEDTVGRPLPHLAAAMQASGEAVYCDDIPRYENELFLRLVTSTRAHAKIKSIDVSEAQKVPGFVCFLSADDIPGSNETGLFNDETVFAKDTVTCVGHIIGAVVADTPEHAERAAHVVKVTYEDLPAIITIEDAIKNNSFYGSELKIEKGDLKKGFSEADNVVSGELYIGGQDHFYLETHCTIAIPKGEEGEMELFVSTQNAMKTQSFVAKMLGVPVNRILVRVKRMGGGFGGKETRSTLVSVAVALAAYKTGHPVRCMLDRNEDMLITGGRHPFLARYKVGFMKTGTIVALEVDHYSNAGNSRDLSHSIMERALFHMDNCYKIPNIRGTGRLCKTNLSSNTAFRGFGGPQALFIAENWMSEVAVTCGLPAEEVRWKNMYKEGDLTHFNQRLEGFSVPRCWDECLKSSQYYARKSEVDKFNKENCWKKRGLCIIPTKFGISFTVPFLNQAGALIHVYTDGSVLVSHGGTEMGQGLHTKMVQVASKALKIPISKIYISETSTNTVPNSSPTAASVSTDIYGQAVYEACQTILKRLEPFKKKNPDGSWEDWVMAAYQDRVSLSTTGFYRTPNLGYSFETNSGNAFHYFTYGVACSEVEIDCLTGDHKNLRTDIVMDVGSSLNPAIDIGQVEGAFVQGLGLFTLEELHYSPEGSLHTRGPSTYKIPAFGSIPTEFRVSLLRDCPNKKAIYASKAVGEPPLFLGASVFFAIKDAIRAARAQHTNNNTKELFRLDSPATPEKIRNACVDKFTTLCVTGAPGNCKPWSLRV

As for “Intact XOD: xanthine oxidase (E.C.1.2.3.2), mfd. by Boehringer Mannheim GmbH., derived from cow milk”, the Residual activity runs as follows: (56 °C) 40.5%; (58 °C) 31.2%; (60 °C) 23.4%.
